Data published in paper PMC4320081.
Like-named read-outs stand apart in the source and are kept apart here.

What was measured:
[1] = target: native Tsal proteins in G. m. morsitans saliva (Glossina morsitans morsitans (endogenous in saliva)); test: SPR; 4000 RU G. m. morsitans saliva amine-coupled (10 mM sodium acetate pH 4.5) on a CM5 chip; purified Nb analytes 500 to 0.976 nM; BIAcore T200; contact 180 s, dissociation 600 s, 10 ul/min; Langmuir 1:1 fit
[2] = target: native Tsal proteins in G. m. morsitans saliva (Glossina morsitans morsitans (endogenous in saliva)); test: ELISA; competitive ELISA: 250 ng G. m. morsitans saliva coated per well, plasma (immune, naive or control) applied 1 h, then HRP-conjugated Nb (1:160 or 1:320) 1 h; ABTS, O.D. 405 nm
[3] = target: native Tsal proteins in G. m. morsitans saliva (Glossina morsitans morsitans (endogenous in saliva)); test: as above; remark: listed apart in the source

Binder	Kd [1] [nM]	koff [1] [s⁻¹]	kon [1] [M⁻¹ s⁻¹]	mean endpoint O.D.405nm of controls (control mouse plasma) [2]	mean endpoint O.D.405nm of controls (control porcine plasma) [2]	mean endpoint O.D.405nm of controls (control porcine plasma) [3]
TsalNb-10 (VHH) VHH: QVQLQESGGGLVQVGGSLRLSCAASGSIFSNNYMGWYRQAPGKQRELVAGITSGGSTNYADSVKGRFTISRDNAKNTVYLQMNNLKPEDTAVYNCKPRGWLTGRWENYWGQGTQVTVSS	0.79	0.001	1.3e+06			
TsalNb-11 (VHH) VHH: QVQLQESGGGLVQPGESLRLSCAASEFTLDYYAMAWYRQAPGKQREGVSCITSSGGRTNYADSVKGRFTISRENGKNTVYLQMSSLKPGDTAVYYCAATEWLAGTKCLGSHEYDYWGQGTQVTVSS	2.7	0.0035	1.3e+06			
TsalNb-11-HRP (VHH) VHH: QVQLQESGGGLVQPGESLRLSCAASEFTLDYYAMAWYRQAPGKQREGVSCITSSGGRTNYADSVKGRFTISRENGKNTVYLQMSSLKPGDTAVYYCAATEWLAGTKCLGSHEYDYWGQGTQVTVSS				2.35 O.D._(405nm)	2.24 O.D._(405nm)	2.29 O.D._(405nm)
TsalNb-5 (VHH) VHH: QVQLQESGGGLVQPGGSLRLSCAGSGLTLDYYAMGWYRQAPGKQREGVSCITSSGGRTNYADSVKGRFTISRDNAKNTVSLQMNSLKPEDTAVYYCAATEWLAGTKCLLSHEYDYWGQGTQVTVSS	4.4	0.004	910000			
TsalNb-5-HRP (VHH) VHH: QVQLQESGGGLVQPGGSLRLSCAGSGLTLDYYAMGWYRQAPGKQREGVSCITSSGGRTNYADSVKGRFTISRDNAKNTVSLQMNSLKPEDTAVYYCAATEWLAGTKCLLSHEYDYWGQGTQVTVSS				2.26 O.D._(405nm)	2.31 O.D._(405nm)	2.23 O.D._(405nm)
TsalNb-8 (VHH) VHH: QVQLQESGGGLVQPGGSLRLSCAASVLTLDYYAMAWYRQAPGKQREGVSCITSSGGRTNYADSVKGRFTISRDNAKNMVYLQMNSLKPEDTAVYYCAATEWLAGTKCLSSHEYDYWGQGTQVTVSS	18	0.017	970000			

Continued by falling Kd [1], values first:

Kd [1] [nM]	koff [1] [s⁻¹]	kon [1] [M⁻¹ s⁻¹]	mean endpoint O.D.405nm of controls (control mouse plasma) [2]	mean endpoint O.D.405nm of controls (control porcine plasma) [2]	mean endpoint O.D.405nm of controls (control porcine plasma) [3]	Binder
0.64	0.00077	1.2e+06				TsalNb-2 (VHH) VHH: QVQLQESGGGLVQVGGSLRLSCQASGSIFSNSYMGWYRQAPGKQRELVAGITSGGSTNYADSVKGRFTISRDNAKNTVYLQMNSLKPEDTAVYYCKPRAWLTGRWENYWGQGTQVTVSS
0.54	0.00051	930000				TsalNb-3 (VHH) VHH: QVQLQESGGGLVQVGGSLRLSCAVSGSIFSNNYMGWYRQAPGKQRELVAGITSGGSTNYADSVKGRFTISRDNAKNTVYLQMNSLLPEDTAVYYCKPRGWLTGRWENYWGQGTQVTVSS
0.47	0.00039	830000				TsalNb-12 (VHH) VHH: QVQLQESGGGLVQPGGSLRLSCTASGSIFSINYANWYRQAPGKQRELVAGITSDGSTNYADSVKGRFTISRDNAKNTVYLQMNRLTPEDTAVYYCKPRAWLTGRWENYWGQGTQVTVSS
0.44	0.00037	850000				TsalNb-1 (VHH) VHH: QVQLQESGGGLVQVGGSLRLSCTASGSIFSINYANWYRQAPGKQRELVAGITSDGSTNYADSVKGRFTISRDNAKNTVYLQMNRLTPEDTAVYYCKPRAWLTGRWENYWGQGTQVTVSS
0.44	0.0005	1.1e+06				TsalNb-4 (VHH) VHH: QVQLQESGGGLVQVGGSLRLSCTASGSIFSINYAGWYRQAPGKQRELVAGITSGGSTNYADSVKGRFTISRDSAKNTVYLQMNSLKAEDTAVYYCKPRAWLTGRWENYWGQGTQVTVSS
